Results reported in PMC6992785, “In cellulo crystallization of Trypanosoma brucei IMP dehydrogenase enables the identification of genuine co-factors” (Nature Communications, 2020).

Target: the molecule itself
Test: crystal structure; serial femtosecond crystallography (XFEL, LCLS CXI) at room temperature (291 K) on crystals grown in living Sf9 cells, isolated and kept in PBS; 2.80 Å; space group P4 21 2, two monomers in the asymmetric unit; native ATP and GMP bound

B1: Trypanosoma brucei inosine-5'-monophosphate dehydrogenase (enzyme, UniProt P50098 1-512, looked up)
chain: MENTNLRTKTLRDGTTAEELFSQDGLSFNDFIILPGFIDFDSSKVNVSGQFTKNILLHLPLVSSPMDTVTESSMARAMALMGGIGVIHNNCTVEQQARMVRSVKLYRNGFIMKPKSVSPDVPVSTIRNIKSEKGISGILVTEGGKYDGKLLGIVCTKDIDFVKDASAPVSQYMTRRENMTVERYPIKLEEAMDVLNRSRHGYLPVLNDKDEVVCLCSRRDAVRARDYPNSSLDRNGHLLCAAATSTREADKGRVAALSEAGIDVLVLDSSQGNTIYQVSFIRWVKKTYPHLEVVAGNVVTQDQAKNLIDAGADSLRIGMGSGSICITQEVLACGRPQATAIYKVARYAASRGVPCVADGGLRNVGDVCKALAVGANVAMLGSMIAGTSETPGEYFFKDGMRLKGYRGMGSIDAMLQGRESGKRYLSENETLQVAQGVAGAVLDKGSVLKLLAYIHKGLQQSAQDIGEVSFDAIREKVYEGQVLFNRRTLTAQSEGAVHSLHHYERKLFASKL
notes: Inosine-5'-monophosphate dehydrogenase of Trypanosoma brucei, full length, with its native C-terminal SKL motif (PTS1); Two monomers in the asymmetric unit; the octamer arises by crystal symmetry; also called TbIMPDH; IMPDH; source: Sf9 insect cells infected with recombinant baculovirus; crystallised in cellulo, crystals isolated by cell lysis (RIPA buffer), washed and stored in PBS; not shown: …
stoichiometry N: 8
